Data as given in US9469841B2, “Prodrug activation in cancer cells using molecular switches” (The Johns Hopkins University, priority 2008, dated 2016).
Where two headings read alike, the source gives them in different places.

How the values were obtained:
MBP317-347 = assay: Effect of beta-cyclodextrin on maltose activation of switch MBP317-347; format: biochemical
Procedure: The rate of beta-lactam hydrolysis as a function of maltose (dots) follows the maltose-binding isotherm (blue). […] Initially, in the absence of any ligand, the rate of beta-lactam hydrolysis catalyzed by the switch is low. At about 5 minutes, maltose is added and the enzyme activity of the switch is turned on. At about 10 minutes, an excess of beta-cyclodextrin is added. This replaces maltose in the binding site and turns the enzyme activity of the switch off. At about 16 minutes, an excess of maltose is added which replaces beta-cyclodextrin and turns the enzyme activity of the switch back on.
Natural allosteric proteins often have modest (<10-fold) differences in function between the effector-bound and effector-unbound states. However very large differences in activity between the two states would be advantageous for many applications of protein switches. […] Using an iterative strategy involving random circular permutation and random insertion several switches were created that approach being on/off in nature (6). […] The creation of these switches was facilitated by a new directed evolution algorithm for non-homologous recombination that was developed for efficiently exploring the sequence space comprised of the possible fusions of the two proteins. […]

HIF-1a = HIF-1a (Homo sapiens, UniProt Q16665); conditions: cited from earlier work
GIA39 E. coli cells = assay: Growth on "negative selection" minimal plates supplemented with 5FC; format: cell-based; set-up: key: + = growth; − = no growth
Procedure: Minimal media was used in the selection schemes and was based on a product mixture described by Sigma. For 1 L it containing 20 g of Select Agar (Sigma# A5054), 6.7 g of Yeast nitrogen base without amino acids (Sigma #Y0626), 1.92 g of Yeast synthetic drop-out without uracil (Sigma #Y1501), glucose to 2%, 1 mM IPTG and 50 μg/mL of chloramphenicol. For “negative” selection media, the above media was supplemented with 75 μg/mL or 25 μg/mL of 5FC and 1 μg/mL of uracil. For “positive” selection media, supplementation was with 25 μg/mL of cytosine, 1 mM arabinose and 100 μg/mL of ampicillin Each Bio-Assay dish contained 250 mL of selection media and each standard Petri dish contained 25 mL of media.
The selection scheme was developed to isolate library members whose CD activity is “off” in the absence of HIF-1a but “on” in the presence of HIF-1a. […] A GST-HIF-1a fusion was created that is under the control of the arabinose promoter on a plasmid that can coexist with the pDIM-C8 library plasmids. This “HIF-1a plasmid” is a variation of the pGEX plasmid and has ampicillin resistance. During selections, this HIF-1a plasmid will either be present to produce HIF-1a and activate the hybrid protein switches, or absent to avoid any production of HIF-1a.
During the negative selection, no HIF-1a plasmid was present in the cells. Thus, hybrids that are active in the absence of HIF-1a will convert the 5FC into 5FU and kill the cell. But, hybrids that are not active in the absence of HIF-1a will be able to use the minimal amount of uracil provided and grow to form colonies. The negative selection was performed twice in succession using the Bio-Assay dish size plates (2 plates each time with about 600,000 cells plated on each plate). The first time the negative selection media contained 75 μg/mL 5FC. The colonies that grew on this plated were recovered and then underwent a second negative selection to help ensure that any pDIM-C8 plasmids encoding a wild-type yCD were removed from the library. The second negative selection was performed the same as the first except that 25 μg/mL of 5FC was used. The cells that survived the second negative selection were harvested and then aliquoted. One aliquot was used to isolate library plasmids that were used in the positive selection that followed.
This experiment confirmed that the switch genes conferred sensitivity to 5FC depends on induction of expression of HIF1-a (see Table 2, below).
Cells harboring the switch genes in pDIM-C8 or cells with the same plasmid together with the HIF1-a plasmid were plated on minimal media plates supplemented with 5FC (i.e. the negative selection conditions). […]

E. coli cells = assay: MIC of ampicillin for E. coli cells expressing switch, with and without maltose; format: cell-based; conditions: E. coli cells expressing MBP or BLA separately

Chain of HIF-1a (Q16665 786-826 limits assumed): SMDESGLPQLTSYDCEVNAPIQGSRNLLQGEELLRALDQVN
Chain of HIF-1a (Q09472 331-417 partner limits assumed): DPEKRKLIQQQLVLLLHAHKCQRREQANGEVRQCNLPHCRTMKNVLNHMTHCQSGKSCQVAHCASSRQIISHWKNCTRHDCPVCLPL

**Q.** Which “Effect on maltose activation of the switch” value (MBP317-347) does the source give for `OC[C@H]1O[C@@H]2O[C@H]3[C@H](O)[C@@H](O)[C@@H](O[C@H]4[C@H](O)[C@@H](O)[C@@H](O[C@H]5[C@H](O)[C@@H](O)[C@@H](O[C@H]6[C@H](O)[C@@H](O)[C@@H](O[C@H]7[C@H](O)[C@@H](O)[C@@H](O[C@H]8[C@H](O)[C@@H](O)[C@@H](O[C@H]1[C@H](O)[C@H]2O)O[C@@H]8CO)O[C@@H]7CO)O[C@@H]6CO)O[C@@H]5CO)O[C@@H]4CO)O[C@@H]3CO` [beta-cylcodextrin, beta-cyclodextrin] here?
**A.** antagonist preventing maltose-activation

**Q.** Which Kd (HIF-1a; in vitro at 25° C., read-out: dissociation constant of the CH1 domain and HIF-1a) does the source give for “CH1 domain: CH1 domain of p300, 100 amino acids, binds HIF-1a” here?
**A.** ~120 nM

**Q.** And the Kd (HIF-1a; minimal domains CH1 and C-TAD of HIF-1a, read-out: Kd)?
**A.** 120 nM

B1: yCD: yeast cytosine deaminase containing the A23L/V108I/I140L mutations; positive control (protein, UniProt Q12178 1-158, looked up, variant A23L V108I I140L)
Cytosine deaminase: MVTGGMASKWDQKGMDIAYEEALLGYKEGGVPIGGCLINNKDGSVLGRGHNMRFQKGSATLHGEISTLENCGRLEGKVYKDTTLYTTLSPCDMCTGAIIMYGIPRCVIGENVNFKSKGEKYLQTRGHEVVVVDDERCKKLMKQFIDERPQDWFEDIGE
**Q.** With B1 as the molecule, how does the “Growth on "negative selection" minimal plates supplemented with 75 μg/ml 5FC” value (GIA39 E. coli cells; w/ HIF1-a plasmid, 1 mM arabinose) read?
**A.** −

**Q.** And the “Growth on "negative selection" minimal plates supplemented with 75 μg/ml 5FC” value (GIA39 E. coli cells; w/ HIF1-a plasmid, No arabinose)?
**A.** −

**Q.** And the “Growth on "negative selection" minimal plates supplemented with 75 μg/ml 5FC” value (GIA39 E. coli cells; w/o HIF1-a plasmid, 1 mM arabinose)?
**A.** −

**Q.** And the “Growth on "negative selection" minimal plates supplemented with 75 μg/ml 5FC” value (GIA39 E. coli cells; w/o HIF1-a plasmid, No arabinose)?
**A.** −

B2: BLA: the enzyme TEM-1 beta-lactamase (protein, UniProt P62593 24-286, looked up)
Beta-lactamase TEM: HPETLVKVKDAEDQLGARVGYIELDLNSGKILESFRPEERFPMMSTFKVLLCGAVLSRVDAGQEQLGRRIHYSQNDLVEYSPVTEKHLTDGMTVRELCSAAITMSDNTAANLLLTTIGGPKELTAFLHNMGDHVTRLDRWEPELNEAIPNDERDTTMPAAMATTLRKLLTGELLTLASRQQLIDWMEADKVAGPLLRSALPAGWFIADKSGAGERGSRGIIAALGPDGKPSRIVVIYTTGSQATMDERNRQIAEIGASLIKHW
**Q.** Which “Effect of maltose on MIC of ampicillin” value (E. coli cells) does the source give for B2 here?
**A.** not affect by maltose
